Drawing on paper PMC5716173, this text covers Kd for 1 molecule.

Assay in all cases: fluorescence anisotropy
Data set [1] concerns the target T1, PabPolB exo- (family B DNA polymerase, exonuclease-deficient) (Pyrococcus abyssi, UniProt P0CL77 1-771, D215A).
T1 sequence: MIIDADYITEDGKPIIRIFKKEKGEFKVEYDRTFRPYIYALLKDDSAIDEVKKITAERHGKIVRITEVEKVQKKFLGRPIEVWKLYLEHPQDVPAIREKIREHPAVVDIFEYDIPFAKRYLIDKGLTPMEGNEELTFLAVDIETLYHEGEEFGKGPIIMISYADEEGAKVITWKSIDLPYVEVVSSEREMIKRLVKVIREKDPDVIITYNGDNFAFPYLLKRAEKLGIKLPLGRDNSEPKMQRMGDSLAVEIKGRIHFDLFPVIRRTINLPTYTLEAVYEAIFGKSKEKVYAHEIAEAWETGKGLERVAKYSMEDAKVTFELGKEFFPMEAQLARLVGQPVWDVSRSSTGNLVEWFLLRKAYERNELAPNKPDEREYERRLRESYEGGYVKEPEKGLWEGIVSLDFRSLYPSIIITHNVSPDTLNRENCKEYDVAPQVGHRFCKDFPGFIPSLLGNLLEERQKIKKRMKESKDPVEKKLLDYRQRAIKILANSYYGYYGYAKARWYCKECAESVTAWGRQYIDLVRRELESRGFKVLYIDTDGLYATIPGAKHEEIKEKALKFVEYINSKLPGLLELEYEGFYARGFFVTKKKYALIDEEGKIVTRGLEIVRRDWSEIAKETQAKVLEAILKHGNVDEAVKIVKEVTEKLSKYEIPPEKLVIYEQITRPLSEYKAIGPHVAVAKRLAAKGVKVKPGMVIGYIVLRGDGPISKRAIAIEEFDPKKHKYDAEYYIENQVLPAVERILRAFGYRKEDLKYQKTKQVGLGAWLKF

The target of data set [2] is T1, PabPolB exo- (family B DNA polymerase, …). This is another data set of the same source.
For data set [3] the target is unchanged. This is another data set of the same source.
For data set [4] the target is unchanged. This is another data set of the same source.
Data set [5] shares this target. The source holds these as a separate data set.
Data set [6] has the same target. This is another data set of the same source.

Where two headings read alike, the source gives them in different places.

B1: HEX-labeled primer/template 18/25 (dsDNA)
DNA 1: CGCCGGGCCGAGCCGTGC
DNA 2: AGGTCGTGCACGGCTCGGCCCGGCG
Usually Kd stands for the equilibrium constant for the complex coming apart. With B1, the Kd was 38 ± 6 nM in data set [1]; 43 ± 6 nM in data set [2]; 20 ± 6 nM in data set [3]; 7 ± 1 nM in data set [4]; 17 ± 2 nM in data set [5]; 25 ± 3 nM in data set [6].
